Read-outs that look alike come from different tables or passages of the source.
Tests used:
[1] = test system: whole cells of Lactobacillus brevis; assay: Reduction of ketones with whole cells; type: cell-based; conditions: after 2 h incubation at 30° C., 10 mM acetophenone, 50 mg cells, 0.1 M glucose
Procedure: In addition ketones can be reduced to chiral alcohols using whole cells of L. brevis. […] The coenzyme regeneration can be achieved by isopropanol or by metabolizable substrates such as glucose.
Test mixture: 50 mg cells of L. brevis (wetweight after centrifugation) is suspended in 860 μl triethanolamine buffer (50 mM; pH 7.50; addition of 1 MM MgCl^2+) which contains 0.1 M glucose and 10 mM acetophenone. Samples are analysed by means of gas chromatography. […] Since a quantification by means of GC separation on a chiral stationary phase had been carried out, it was possible to show at the same time that the phenylethanol that forms is of high optical purity but no quantifiable (S)-alcohol could be detected. The optical purity is considerably >95% for (R)-alcohol.

[2] = biological target: T1, alcohol dehydrogenase from L. brevis (Levilactobacillus brevis, UniProt Q84EX5); assay: biochemical; type: biochemical; conditions: 10 mM keto compound
T1 sequence (Q84EX5 2-252): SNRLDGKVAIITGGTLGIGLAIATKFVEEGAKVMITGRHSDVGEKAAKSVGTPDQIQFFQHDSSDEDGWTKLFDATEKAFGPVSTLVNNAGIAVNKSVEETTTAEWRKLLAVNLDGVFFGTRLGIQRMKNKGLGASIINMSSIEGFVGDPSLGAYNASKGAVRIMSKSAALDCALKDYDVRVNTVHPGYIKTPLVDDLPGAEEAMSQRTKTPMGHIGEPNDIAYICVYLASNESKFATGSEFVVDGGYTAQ
Procedure: A series of other ketones and keto esters were used instead of acetophenone and it was tested whether these can be reduced by enzyme catalysis.
The following test mixture was used for this:
970 μl triethanolamine buffer (50 mM; pH 7.0, containing 10 mM keto compound)
20 μl NADPH (0.19 mM in the test)
Some of the ketones were also tested at a concentration of 1 mM in order to verify a possible substrate inhibition at 10 mM.

[3] = biological target: T2, alcohol dehydrogenase from Lactobacillus brevis (Levilactobacillus brevis, UniProt Q84EX5); type: biochemical; conditions: l. brevis alcohol dehydrogenase, 24 h, 5000 µM, pH 7
T2 construct: same enzyme regenerates NADPH with isopropanol
T2 sequence (Q84EX5 2-252): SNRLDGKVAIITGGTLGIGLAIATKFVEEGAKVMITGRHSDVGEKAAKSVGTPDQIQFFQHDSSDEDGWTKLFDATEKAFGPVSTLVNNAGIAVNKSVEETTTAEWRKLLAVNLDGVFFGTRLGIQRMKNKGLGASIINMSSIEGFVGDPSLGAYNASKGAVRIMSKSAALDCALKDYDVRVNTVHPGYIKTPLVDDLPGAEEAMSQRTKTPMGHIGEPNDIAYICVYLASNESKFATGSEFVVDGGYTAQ
Procedure: Purified enzyme (example 2C) and the necessary coenzyme (NADP) were used for the enzyme-catalysed synthesis of (R)-phenylethanol from acetophenone. The oxidized co-enzyme was continuously regenerated by isopropanol which was simultaneously present so that the reaction only required catalytic amounts of coenzyme. In detail the mixture contained (the final concentrations of the components in the test are listed in brackets): 20 μl NADP (0.05 mM), 7.7 μl isopropanol (0.1 M), 0.6 μl acetophenone (5 mM), 921.7 μl triethanolamine buffer (50 mM; pH 7.0, containing 1 mM MgCl2) and 50 μl alcohol dehydrogenase from Lactobacillus brevis (4.5 units). This mixture with a total volume of 1 ml was incubated for 24 hours at 30° C., then a sample was analysed by means of gas chromatography. For this 100 μl was removed, shaken out with 100 μl chloroform, the phases were separated by centrifugation and an aliquot was taken from the lower phase (chloroform) for the GC.
The separation conditions for the separation of (R)- and (S)-phenylethanol on a gas chromatograph: stationary phase: Lipodex E, CD column (Macherey and Nagel, Duren), mobile phase: helium, injection volumes: 1 μl detection: FID, temperature: 110° C. Under these conditions the substrate acetophenone is eluted at 10.5 min, (S)-phenylethanol at 13.8 min and (R)-phenylethanol at 14.2 min. […]

[4] = Temperature stability of the alcohol dehydrogenase (30 min at temperature, measured at 30° C.); type: physicochemical; conditions: for temperature of maximum stability: 30 min
Procedure: The temperature stability in the range of 25 to 70° C. was determined in an analogous manner to that described under A. The homogeneous enzyme solution was subjected for 30 min to the recited temperatures and subsequently measured directly at 30° C. with the above test mixture. […] In contrast the ADH from L. kefir is only stable up to 40° C. with a maximum at 37° C., afterwards the activity decreases rapidly. The maximum for this enzyme is at 37° C.

[5] = Standard enzyme test of purified enzyme (acetophenone, NADPH); type: biochemical
Procedure: The process for the isolation and purification of the ADH enzyme proceeds essentially via the following process steps: disruption of the cultured cells, such as by glass beads, carrying out hydrophobic chromatography or interaction chromatography and followed by subsequent anion exchange and affinity chromatography. In particular it has proven to be advantageous when all homogenization and elution buffers contain from about 0.5 to about 5 mM magnesium. In this connection a Mg^2+ concentration of about 1 mM has proven to be particularly advantageous. In this manner an enzyme is obtained which has a specific activity of at least 400 U/mg and in many cases up to 500 U/mg.
The enzyme was released from the cells by wet-grinding with the aid of glass beads (0.3 mm), but can also be achieved by any other method for disrupting bacterial cells. The bacterial mass is diluted to a 40% suspension with 0.1 M acetate buffer pH 4.0+1 mM MgCl2 supplemented with an antifoaming agent (polypropylene glycol). This was subjected to a 20 minute disruption while cooling continuously in a disintegrator (IMA Co.) at 4000 rpm with addition of glass beads in a ratio of 1:2. 8 g bacteria yielded 10 ml crude extract with a volume activity of 40 U/ml and a protein content of ca. 3 mg/ml. […]

[6] = Temperature optimum of enzyme activity; type: biochemical
[7] = pH stability of the alcohol dehydrogenase (30 min incubation, then standard acetophenone test); type: physicochemical; conditions: for Activity: 30 min
Procedure: The dependence of the activity of the enzyme when stored in buffers with various pH values was examined in the range of pH 4 to 11. Depending on the buffer capacity various buffers in the pH range of 4 to 11 were prepared and the homogeneous enzyme was incubated therein for 30 minutes. 1 μl thereof was removed and added to the normal test reagent mixture of 970 μl triethanolamine buffer (100 mM; pH 7.0 containing 11 mM acetophenone) and 20 μl NADPH (final concentration 0.19 mM). The reaction was monitored for 1 minute at 30° C. and 340 nm.

[8] = listed as enzyme according to the invention

Molecule: CC(=O)c1ccccc1 [acetophenone]
- substrate remaining (GC) [1]: no longer detectable
- Activity ([2]; 0.19 mM NADPH, pH 7.0, purified enzyme diluted 1:10): 3.26 U/ml
- activity at 10000 µM ([2]; relative to acetophenone = 100, read-out: Relative act.): 100%
- substrate converted [3]: more than 95%

B1: alcohol dehydrogenase from Lactobacillus brevis: stable R-specific NADP-dependent alcohol dehydrogenase purified to homogeneity from Lactobacillus brevis DSM 20054 (protein)
chain: MSNRLDGKVAIITGGTLGIGLAIATKFVEEGAKVMITGRHSDVGEKAAKSVGTPDQIQFFQHDSSDEDGWTKLFDATEKAFGPVSTLVNNAGIAVNKSVEETTTAEWRKLLAVNLDGVFFGTRLGIQRMKNKGLGASIINMSSIEGFVGDPSLGAYNASKGAVRIMSKSAALDCALKDYDVRVNTVHPGYIKTPLVDDLPGAEEAMSQRTKTPMGHIAEPNDIAYICVYLASNESKFATGSEFVVDGGYTAQ
- temperature at which the enzyme is inactivated by 50% (thermal deactivation) [4]: about 65 °C
- retained activity ([4]; 50 mM MES buffer, about 30 minutes, between 25° C. and 60° C.): over 95%
- temperature of maximum stability [4]: 40 °C
- temperature of maximum stability [4, 8]: ca. 40 °C
- act. (temperature stability) ([4]; 30 min at 25° C.): 9.43 U/ml
- act. (temperature stability) ([4]; 30 min at 30° C.): 8.74 U/ml
- act. (temperature stability) ([4]; 30 min at 37° C.): 12.06 U/ml
- act. (temperature stability) ([4]; 30 min at 40° C.): 12.15 U/ml
- act. (temperature stability) ([4]; 30 min at 42° C.): 11.16 U/ml
- act. (temperature stability) ([4]; 30 min at 45° C.): 10.81 U/ml
- act. (temperature stability) ([4]; 30 min at 47° C.): 8.23 U/ml
- act. (temperature stability) ([4]; 30 min at 50° C.): 8.37 U/ml
- act. (temperature stability) ([4]; 30 min at 60° C.): 8.51 U/ml
- act. (temperature stability) ([4]; 30 min at 70° C.): 0.56 U/ml
- specific activity [5]: at least 400 U/mg
- optimal test temperature (activity maximum) [6]: 50 °C
- optimal test temperature (activity maximum) [6, 8]: ca. 50 °C
- act. (temperature optimum) ([6]; test temperature 25° C.): 10.31 U/ml
- act. (temperature optimum) ([6]; test temperature 30° C.): 9.66 U/ml
- act. (temperature optimum) ([6]; test temperature 37° C.): 9.76 U/ml
- act. (temperature optimum) ([6]; test temperature 40° C.): 17.78 U/ml
- act. (temperature optimum) ([6]; test temperature 42° C.): 16.93 U/ml
- act. (temperature optimum) ([6]; test temperature 45° C.): 18.06 U/ml
- act. (temperature optimum) ([6]; test temperature 47° C.): 19.13 U/ml
- act. (temperature optimum) ([6]; test temperature 50° C.): 31.46 U/ml
- act. (temperature optimum) ([6]; test temperature 55° C.): 24.48 U/ml
- act. (temperature optimum) ([6]; test temperature 60° C.): 23.69 U/ml
- act. (temperature optimum) ([6]; test temperature 65° C.): 1.98 U/ml
- act. (temperature optimum) ([6]; test temperature 70° C.): 0.58 U/ml
- Activity ([7]; pH 4.0, Na acetate/acetic acid): 6.86 U/ml
- pH value of maximum stability (larger maximum) ([7]; pH 4 to 11, 30 min): 9.0
- pH value of the smaller maximum of pH stability ([7]; pH 4 to 11, 30 min): 5.5
- pH value of maximum stability (larger maximum) ([7]; pH 4 to 11, 30 min, listed as ADHs according to the invention): about 9.0
- Activity ([7]; pH 4.5, Na acetate/acetic acid): 6.22 U/ml
- Activity ([7]; pH 5.0, MES/NaOH): 7.04 U/ml
- Activity ([7]; pH 5.5, MES/MaOH): 8.73 U/ml
- Activity ([7]; pH 6.0, triethanolamine/NaOH): 5.58 U/ml
- Activity ([7]; pH 6.5, triethanolamine/NaOH): 5.80 U/ml
- Activity ([7]; pH 7.0, triethanolamine/NaOH): 6.57 U/ml
- Activity ([7]; pH 7.5, Tris/HCl): 5.04 U/ml
- Activity ([7]; pH 8.0, Tris/HCl): 3.83 U/ml
- Activity ([7]; pH 8.5, Tris/HCl): 8.42 U/ml
- Activity ([7]; pH 9.0, Tris/HCl): 17.11 U/ml
- Activity ([7]; pH 10.0, glycine/NaOH): 1.25 U/ml
- Activity ([7]; pH 11.0, glycine/NaOH): 2.43 U/ml

Reference: patent US6037158A, “Alcohol dehydrogenase and its use for the enzymatic production of chiral hydroxy compounds” (priority 1996, dated 2000)
